Here are results for 18 sequences from the supplement of paper PMC12764529.

A short description of series [1]: folding stability dG unfold from chymotrypsin proteolysis; higher = more stable. In outline:
(§1)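 Designed mini-proteins (under 80 residues, no cysteine) in a PA-tagged cDNA display construct were digested with trypsin and chymotrypsin. Each protease was used at 11 concentrations (threefold dilutions) plus a no-protease condition, followed by sequencing. K50 was inferred by Bayesian fitting of sequencing counts, and unfolding free energy was derived against a sequence-predicted unfolded-state K50 and a shared folded-state K50, per protease or combined. Only designs with AlphaFold2 dimer inter-PAE above 15 were kept.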

Series [2] can be described thus: folding stability dG unfold (combined trypsin and chymotrypsin); higher = more stable. In outline: as §1
Series [3] in a line: folding stability dG unfold from trypsin proteolysis; higher = more stable. In outline:
as §1

± gives the half width of the 95% confidence interval.

With “SAGGSAGGSAGGKVKIVSVSYDPETGKLTVEVEIPNPKKLLTVTTDNPNIPAEEIAKKLASAGGSAGGSAGG [r7_833_TrMRF]”, the “folding stability dG unfold” value is 0.058 ± 0.056 kcal/mol in series [1], 0.362 ± 0.15 kcal/mol in series [2] and 0.453 ± 0.091 kcal/mol in series [3].

As to “SAGGSAGGSAGGKVTVTPDGRLVIEKPKVTVEPVEVEEVEVELELKLSPEELEELLKKLSAGGSAGGSAGGS [r10_1096_TrROS_Hall]”, the figures for the “folding stability dG unfold” value in series [1], in series [2] and in series [3] were 0.745 ± 0.044 kcal/mol, 0.554 ± 0.19 kcal/mol and 0.51 ± 0.17 kcal/mol, respectively.

With “SAGGSAGGSAGGKVVKFTRPDGKPVDAKKILSYDPDKPKLYVLVEDEGPVELREVDADKDSAGGSAGGSAGG [r7_236_TrMRF]”, the entries for the “folding stability dG unfold” value in series [1], in series [2] and in series [3] were 0.379 ± 0.32 kcal/mol, 0.161 ± 0.23 kcal/mol and -0.245 ± 0.22 kcal/mol, respectively.

On to “SAGGSAGGSAGGKVVKKVKVLTKTPKGGYKVIEVDFTDPSAVVEEAKKAGLEVLKVEEVSAGGSAGGSAGGS [r10_882_TrMRF]”, for which the entries for the “folding stability dG unfold” value in series [1], in series [2] and in series [3] were 1.05 ± 0.094 kcal/mol, 0.728 ± 0.098 kcal/mol and -0.045 ± 0.079 kcal/mol, respectively.

“SAGGSAGGSAGGLAPAPDGSPVAVLLDDGRVVVFDPETAELYVAFVTPDSVRVVPLPLDLSAGGSAGGSAGG [r7_527_TrMRF]”: the “folding stability dG unfold” value in series [1] is 0.656 ± 0.038 kcal/mol; in series [2] it was 0.332 ± 0.053 kcal/mol; in series [3] it was -0.565 ± 0.071 kcal/mol.

As to “SAGGSAGGSAGGLEEIRENGEALVFYPDGRVYRVDLKTGKITPPPGFKPENIVRVVFVKKSAGGSAGGSAGG [r7_566_TrMRF]”, the “folding stability dG unfold” value in series [1] was found to be 0.0292 ± 0.14 kcal/mol; in series [2], 0.301 ± 0.076 kcal/mol; in series [3], 0.493 ± 0.1 kcal/mol.

As to “SAGGSAGGSAGGLEELKKGFKKPVFVAKIEKEVRLLPNGDLIVRYKIEGPDLELELVFSSAGGSAGGSAGGS [r10_160_TrMRF]”, the figures for the “folding stability dG unfold” value in series [1], in series [2] and in series [3] were 3.56 ± 0.14 kcal/mol, 3.28 ± 0.12 kcal/mol and 2.6 ± 0.12 kcal/mol, respectively.

As for “SAGGSAGGSAGGLEIEFWFFFPDEGYMIEVEWERDPDGPIEPTKITEIHPMPDGQPNPGFSAGGSAGGSAGG [r11_750_TrROS]”, the entries for the “folding stability dG unfold” value in series [1], in series [2] and in series [3] were 2 ± 0.04 kcal/mol, 1.94 ± 0.087 kcal/mol and 1.81 ± 0.059 kcal/mol, respectively.

As for “SAGGSAGGSAGGLGPDTPYATLSVTLTFTVRLKVRDPVTGKEYEIEYDVTLTFTFTVPASAGGSAGGSAGGS [r10_1116_TrMRF]”, the entries for the “folding stability dG unfold” value in series [1], in series [2] and in series [3] were 5.84 ± 0.31 kcal/mol, 5.58 ± 0.4 kcal/mol and 5.07 ± 0.54 kcal/mol, respectively.

On to “SAGGSAGGSAGGLLKLKLKLKYEFTFKDENGNTYKVEKELTLVLELPPINETGKKNLVLSAGGSAGGSAGGS [r10_168_TrMRF]”, for which the “folding stability dG unfold” value in series [1] came out at 3.66 ± 0.063 kcal/mol; in series [2] it was 3.12 ± 0.13 kcal/mol; in series [3], 2.07 ± 0.036 kcal/mol.

Regarding “SAGGSAGGSAGGLPDREILEVRVLNPEREETGLRVRVEVVLPDGPVTIELPAEEVKELASAGGSAGGSAGGS [r10_771_TrMRF]”, the “folding stability dG unfold” value is 1.03 ± 0.024 kcal/mol in series [1], 0.726 ± 0.071 kcal/mol in series [2] and -0.0431 ± 0.068 kcal/mol in series [3].

For the sequence “SAGGSAGGSAGGLPEDIELEVEPLEITLEDGSRVRILIARAPDPEIAAIDIEVFPPDDPKSAGGSAGGSAGG [r11_338_TrMRF]”, the “folding stability dG unfold” value in series [1] was 0.51 ± 0.071 kcal/mol; in series [2] it was 0.559 ± 0.13 kcal/mol; in series [3] it was 0.417 ± 0.11 kcal/mol.

Take “SAGGSAGGSAGGLPPDVRLRVRITRPDGTVLEFDAPADVEIFFPDVPPEWRIEVDAEDVSAGGSAGGSAGGS [r10_774_TrMRF]”: the “folding stability dG unfold” value in series [1] came out at 2.49 ± 0.057 kcal/mol; in series [2] it was 2.09 ± 0.16 kcal/mol; in series [3], 0.732 ± 0.061 kcal/mol.

“SAGGSAGGSAGGLPPGAKVKVEIEISYDDPFSGPTNEYNSFPVELNFEPPEPIPTDPRLNSAGGSAGGSAGG [r7_522_TrMRF]”: the entries for the “folding stability dG unfold” value in series [1], in series [2] and in series [3] were -1.38 ± 0.55 kcal/mol, less than -1 kcal/mol and -0.683 ± 0.16 kcal/mol, respectively.

Consider “SAGGSAGGSAGGLSLKVKNKKTGKWYDIESIEVKKDPSSGKPVIKIKTSGPKEVEKELVSAGGSAGGSAGGS [r10_663_TrMRF]”, for which the “folding stability dG unfold” value in series [1] was -0.178 ± 0.22 kcal/mol; in series [2], -0.34 ± 0.4 kcal/mol; in series [3] it was -0.894 ± 0.34 kcal/mol.

Consider “SAGGSAGGSAGGLVAKVYRDGKEAVFYFDSPEEMVESIRPLFPDGKEVKVEVTTPEELFSAGGSAGGSAGGS [r10_1167_TrMRF]”, for which the “folding stability dG unfold” value was 0.22 ± 0.27 kcal/mol in series [1], 0.0392 ± 0.24 kcal/mol in series [2] and -0.677 ± 0.16 kcal/mol in series [3].

Regarding “SAGGSAGGSAGGLVEQAVRAIREAKKAGLKEVVIYLSEEQKEAVKEAAEKEGLKVKIVPESAGGSAGGSAGG [r11_371_TrROS_Hall]”, the results for the “folding stability dG unfold” value in series [1], in series [2] and in series [3] were 0.814 ± 0.021 kcal/mol, 0.589 ± 0.086 kcal/mol and 0.244 ± 0.048 kcal/mol, respectively.

For “SAGGSAGGSAGGLVLRGPNDSLLFVLYNPDTGLAVFYNPATNQLLVVNLPLPKPKPSELLSAGGSAGGSAGG [r7_383_TrMRF]”, the “folding stability dG unfold” value in series [1] was found to be 2.81 ± 0.049 kcal/mol; in series [2], 2.68 ± 0.15 kcal/mol; in series [3], 2.38 ± 0.089 kcal/mol.
